In the supplement of paper PMC10126150:
± gives the standard deviation of the averaged measurements.

These sequences were tested on ATP (assay: switch fluorescence ratio, 500 uM ATP over buffer (Cy3 cluster intensity, sum of 5 cycles each) (fold (ratio)); higher = stronger signal-on switching upon ATP binding; sequences stand for … in TCGTCGGCAGCGTCAGATGTGTATAAGAGACAGTTTTTTTTTTTTTTTTTTTTTTTTT…TC). Settings: aptamer strand: ATP DNA aptamer (quencher-CACCTGGGGGAGTATTGCGGAGGAAGG + anchor), 100 nM annealed; ATP concentration: 500 uM.
How it was run: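 After annealing to 100 nM quencher-labelled ATP aptamer, Cy3-labelled switching-strand clusters on a modified Illumina MiSeq flow-cell were imaged in selection buffer. A second image followed after 15 min with 500 uM ATP at 22 °C, and five such buffer/ATP cycles were done, each separated by NaOH stripping and re-annealing. The fluorescence ratio, averaged per switch-domain sequence, is summed target-cycle over summed buffer-cycle Cy3 intensity per cluster, with clusters outside 100-1000 RFU excluded.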
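Further: ATP exposure 15 min at 22 °C before imaging.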

Row | Sequence | switch fluorescence ratio
1 | AAGTGCTTGA | 1 ± 0.069
2 | AAATCGTTCC | 2.14 ± 0.082
3 | GGGCTGACAG | 1.035 ± 0.0012
4 | TCTCAAGTGG | 0.992 ± 0.031
5 | TGGGTATATA | 1.03 ± 0.016
6 | CAATGAAAGC | 1.04 ± 0.021
7 | AATTAGACGT | 0.988 ± 0.015
8 | AGCTATTGGG | 0.975 ± 0.045
9 | TGACACTTAA | 1.07 ± 0.096
10 | AGGAGAAAAT | 1.04 ± 0.028
11 | ATTTTGGAGC | 0.999 ± 0.058
12 | ACGGGGTTGC | 1.01 ± 0.017
13 | AATGGGTATT | 0.987 ± 0.026
14 | GTGCTGAATG | 1.02 ± 0.016
15 | CCAACTTTAC | 1.57 ± 0.037
16 | AACATCGTAC | 1.12 ± 0.06
17 | TATTTATTGC | 1.01 ± 0.037
18 | ACTTGAGGGA | 0.9743 ± 0.0071
19 | CGCAGGGAGT | 1.041 ± 0.01
20 | TTTCTGGGTC | 1.02 ± 0.068
21 | CGTAGTATAG | 1.24 ± 0.017
22 | GGGGATGTGC | 1.01 ± 0.04
23 | TTAATTTACA | 1.09 ± 0.044
24 | TTAACCTTTT | 1.36 ± 0.58
25 | CACAGCAGTC | 2.62 ± 0.34

Row | Sequence | switch fluorescence ratio
26 | ACGGCCACTG | 1.07 ± 0.019
27 | GTTTTTCCTG | 0.981 ± 0.055
28 | TTTGGAGGTG | 1.04 ± 0.024
29 | TGCGCAGCGG | 1.005 ± 0.0094
30 | TTTATTATGC | 1.03 ± 0.026
31 | TTTGAGAAGC | 0.992 ± 0.026
32 | TGCATTCAGT | 0.99 ± 0.048
33 | ACCAAGTTTT | 1.019 ± 0.0072
34 | GAGATGTTAG | 0.971 ± 0.017
35 | AAGGGTCTCG | 1.03 ± 0.095
36 | TGGAGCGGGA | 1 ± 0.022
37 | TTTTATATAC | 1.14 ± 0.076
38 | GGGGGATAGT | 0.998 ± 0.032
39 | GGTTTTGAGG | 0.973 ± 0.011
40 | TGGGATAGGC | 0.991 ± 0.032
41 | GACGGTAGAG | 1.03 ± 0.02
42 | ACTCGGAATT | 1.12 ± 0.019
43 | AATCAGACGG | 1.02 ± 0.021
44 | GACGCATGGT | 2.37 ± 0.15
45 | GGAGTTCAGG | 0.9905 ± 0.0024
46 | CTCGTAATCT | 1.571 ± 0.007
47 | TTTGTGGTCT | 0.991 ± 0.032
48 | TTTTAGGTAG | 0.99 ± 0.0029
49 | TTGGTCAATC | 1.04 ± 0.024
50 | CGGTAAAGAT | 1 ± 0.058

Row | Sequence | switch fluorescence ratio
51 | TTTTCAGTAG | 0.9996 ± 0.0039
52 | CGGCGGGGAG | 1 ± 0.044
53 | CGTTAAGGGT | 0.98 ± 0.031
54 | GCGGATGGTG | 1.07 ± 0.08
55 | TAGTTTAGTT | 1 ± 0.015
56 | TAACCACCTT | 1.12 ± 0.044
57 | ATGCAAGGCA | 1.02 ± 0.04
58 | GAGGGATTCC | 1.06 ± 0.095
59 | TTGCTATATT | 1.01 ± 0.032
60 | AAGGAGTTTG | 0.969 ± 0.045
61 | ATTGGTGAGG | 0.988 ± 0.032
62 | TTTCAGGGGT | 1.86 ± 0.81
63 | TTCGAGAGTA | 1.05 ± 0.1
64 | GAGGGGTGCA | 0.992 ± 0.015
65 | TCCGCGGGGA | 1.52 ± 0.59
66 | AGTGTATCCC | 1.01 ± 0.034
67 | GTCGATATTT | 1.01 ± 0.026
68 | AGGCAGGCCA | 1.17 ± 0.056
69 | CATCTCTGGA | 0.9986 ± 0.0016
70 | TTCTGTGGGT | 0.955 ± 0.057
71 | GCCGCAGGGA | 2.3 ± 1.9
72 | ATAAGTTGGG | 0.968 ± 0.024
73 | GTGGGTAGTG | 0.996 ± 0.038
74 | TGAGATTTAG | 0.988 ± 0.026
75 | AGGTTCTCTG | 0.9942 ± 0.0011

Row | Sequence | switch fluorescence ratio
76 | TTTGGCTAAA | 1 ± 0.044
77 | GGACAGCGCG | 1 ± 0.07
78 | AAACAAAAAT | 1.01 ± 0.012
79 | ATGTTCTCGT | 0.995 ± 0.021
80 | CGATCGGTGG | 1.01 ± 0.058
81 | TAAAATATTA | 1.03 ± 0.02
82 | GCCGTTGTGC | 0.984 ± 0.069
83 | GATGGGGCAC | 1.01 ± 0.013
84 | AATTCATTTT | 1.03 ± 0.059
85 | CCTGGCAGCG | 1.05 ± 0.03
86 | TTAAGGCTTA | 1.01 ± 0.044
87 | GCGTCAAGTG | 0.988 ± 0.026
88 | GGTTTTAATG | 0.988 ± 0.031
89 | AAAAGGTTAT | 1.02 ± 0.027
90 | GATGGGGCGG | 1.01 ± 0.048
91 | ATGGGTAGTG | 0.984 ± 0.02
92 | AATGATGTGG | 0.998 ± 0.021
93 | ATCGGAGACA | 0.9681 ± 0.0067
94 | CGGGGCTTGT | 0.985 ± 0.013
95 | ATATTCGCAC | 1.19 ± 0.063
96 | TTTAAGTAGG | 1.02 ± 0.048
97 | GCTTTCCAGA | 0.9949 ± 0.0059
98 | ACAGCTGGCG | 1.05 ± 0.024
99 | GGGTGGTTTG | 1.006 ± 0.0097
100 | AAGAGTTGTA | 1.01 ± 0.019

Row | Sequence | switch fluorescence ratio
101 | TAAAGCTGCT | 0.9705 ± 0.0071
102 | TTCGGTCTAA | 0.979 ± 0.023
103 | GCGCTTAGGT | 0.983 ± 0.077
104 | ATGATGGCAA | 1.03 ± 0.027
105 | AAGTAGTCCC | 1.3 ± 0.39
106 | GGAGGTCTAC | 1.03 ± 0.014
107 | ATGGTAGTGC | 0.986 ± 0.016
108 | AAAACAAATA | 0.9968 ± 0.0089
109 | ACGCTGCCAG | 1.04 ± 0.02
110 | TATTTACCGC | 1.13 ± 0.034
111 | TATACTATGG | 1.01 ± 0.038
112 | TTTTAAGTGT | 1 ± 0.045
113 | CCTTTTGCCA | 1.1 ± 0.028
114 | TTAATGGCGA | 0.986 ± 0.033
115 | ATCGGGGAGG | 1.01 ± 0.0081
116 | AGTTATTTTT | 0.991 ± 0.011
117 | GTTTAGATGT | 0.994 ± 0.02
118 | GACAACAAGG | 1.047 ± 0.0089
119 | GTTTACCGGA | 1.05 ± 0.08
120 | TTGAGAAAGT | 1.47 ± 0.68
121 | TCACGGGGGC | 0.976 ± 0.061
122 | AAGTGGTGTT | 0.984 ± 0.028
123 | GGGCGCTGGG | 1 ± 0.032
124 | GGGGGCGGAA | 1 ± 0.027
125 | GAAATTGGGA | 1.08 ± 0.12

Row | Sequence | switch fluorescence ratio
126 | TTTTATAT | 0.98 ± 0.03
127 | GACTTTATGG | 0.99 ± 0.035
128 | CCCAATTTGC | 1.32 ± 0.022
129 | TTACCAAAAC | 1.41 ± 0.54
130 | GGGATGTGGT | 1.01 ± 0.023
131 | TTTTGTACGC | 1.097 ± 0.0065
132 | CGTTCGACTG | 0.97 ± 0.025
133 | TGCGGTAGAA | 1.01 ± 0.024
134 | TCTGAGTCCA | 1.032 ± 0.0022
135 | CGGGTATGGG | 0.984 ± 0.03
136 | AAAGGGTAAG | 0.975 ± 0.015
137 | TCTATAAGGT | 0.99 ± 0.022
138 | CAACGAGGGG | 1.02 ± 0.039
139 | GGGATTTGCG | 1 ± 0.046
140 | GTTTTAATTT | 0.988 ± 0.019
141 | TCGTGGGAAA | 2.11 ± 1.5
142 | TGGAGTTGGT | 0.987 ± 0.047
143 | ACTGTTAGGC | 1.01 ± 0.056
144 | TTGAGATCCT | 1.027 ± 0.0084
145 | TAAAGCGTTT | 1.12 ± 0.27
146 | TTAACGGGGT | 1.04 ± 0.073
147 | AAAGTGGGCG | 1.13 ± 0.18
148 | GAAGAGAGGT | 0.9901 ± 0.0037
149 | TTAAAAACTG | 0.992 ± 0.033
150 | AAGTGTCGGG | 0.994 ± 0.025

Row | Sequence | switch fluorescence ratio
151 | TGGGGCACCG | 0.994 ± 0.029
152 | TCGCTACCGA | 1.09 ± 0.04
153 | TATGAGGAAC | 1.09 ± 0.14
154 | TGATTAGAAG | 0.985 ± 0.034
155 | ATATTCTGAA | 0.976 ± 0.017
156 | AAAGTTCGTA | 0.985 ± 0.039
157 | CCAATCACGG | 1.09 ± 0.012
158 | GTATAAGAGC | 0.985 ± 0.033
159 | TACCGTACGA | 1.5 ± 0.019
160 | ATGGGGATGG | 0.978 ± 0.033
161 | GTTTCAGGCT | 0.9888 ± 0.0041
162 | TTATCGGTCT | 0.9849 ± 0.0065
163 | TTATGGGTAA | 1.03 ± 0.034
164 | CAAAAGGGGT | 1.004 ± 0.0063
165 | TTAAATTTTT | 1.01 ± 0.041
166 | TCTGTATACA | 0.989 ± 0.037
167 | AGGTTGGGAA | 0.944 ± 0.07
168 | ATTGGCTACT | 0.987 ± 0.013
169 | ACAGCGGGGG | 1.03 ± 0.045
170 | AGCTGGATGC | 1.04 ± 0.036
171 | GGCCTTAGGG | 0.987 ± 0.013
172 | CAAACGAGGT | 0.994 ± 0.026
173 | CGTACGTGGC | 1.125 ± 0.0035
174 | TGTGGGAATT | 1.01 ± 0.049
175 | CCAGGGGCTT | 1.31 ± 0.41

Row | Sequence | switch fluorescence ratio
176 | GAAAACATAG | 1.01 ± 0.02
177 | CACATTGTCC | 0.9773 ± 0.0025
178 | TAATGAGGCT | 1.03 ± 0.014
179 | CGGGGGGGTC | 1 ± 0.036
180 | TGTGGAGCAT | 1.29 ± 0.071
181 | GGAGGGGGGA | 1.09 ± 0.24
182 | TTTACGAAGT | 0.966 ± 0.013
183 | TAGTGGGGGG | 0.989 ± 0.026
184 | TTTTTGAGC | 1.011 ± 0.0086
185 | TTTTTAGGAA | 1.04 ± 0.055
186 | CCCATTTGTA | 1 ± 0.026
187 | CGTAGGATGT | 1.02 ± 0.044
188 | AAAAATCGAG | 1.0015 ± 0.00019
189 | TTGTTCGCTT | 1.03 ± 0.025
190 | TCAGGGTTTC | 0.984 ± 0.013
191 | ATTTAGGGGG | 0.966 ± 0.02
192 | ACATGAGGGG | 1.026 ± 0.0094
193 | GATAGGGTAA | 0.988 ± 0.039
194 | ATTCTTTGGC | 1.04 ± 0.097
195 | GTTGGATATT | 0.9976 ± 0.0064
196 | TGAAGGGGGC | 0.994 ± 0.045
197 | TAAATAATTG | 1.008 ± 0.0069
198 | CGGGCCATAG | 1.03 ± 0.044
199 | TGAAGCCAGT | 1 ± 0.024
200 | CCAGTAATTT | 1.038 ± 0.0029
